Experimental data published in patent US20260001928A1 (CORTERIA PHARMACEUTICALS, priority 2022, published 2026).
*1 amine or outer side, *2 acyl side, *3 side chain or, on linkers, in order; H or OH if unused. Side-chain parts run from the residue outwards. [ ]: non-standard residue; d: D form. The star is where a group is joined. C18 diacid = O=C(O)CCCCCCCCCCCCCCCCC(=O)*; γGlu = O=C(O)[C@H](CCC(=O)[*:2])N[*:1]; Api = NC1(C(=O)O)CCNCC1; AEEA = NCCOCCOCC(=O)O; Aib = CC(C)(N)C(=O)O

T1: CRF1R receptor (UniProt P34998 24-415, limits assumed)
T1 sequence (looked up): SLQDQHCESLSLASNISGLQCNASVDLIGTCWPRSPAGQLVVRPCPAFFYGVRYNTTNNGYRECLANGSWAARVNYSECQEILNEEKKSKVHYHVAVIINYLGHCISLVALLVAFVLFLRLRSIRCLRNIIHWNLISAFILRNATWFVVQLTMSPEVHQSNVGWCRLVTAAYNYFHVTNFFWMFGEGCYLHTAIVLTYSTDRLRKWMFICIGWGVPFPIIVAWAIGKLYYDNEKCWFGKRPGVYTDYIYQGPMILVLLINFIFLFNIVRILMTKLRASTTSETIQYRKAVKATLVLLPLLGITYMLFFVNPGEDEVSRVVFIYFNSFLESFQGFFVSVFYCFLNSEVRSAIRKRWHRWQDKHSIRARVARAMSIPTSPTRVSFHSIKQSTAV


Tests used:
CRF1R receptor = target: T1, CRF1R receptor; experiment: cell-based or functional assay
[1] = target: human corticotropin-releasing factor 2a (CRF2a receptor) (human), Q13324; experiment: cell-based or functional assay
Sequence of human corticotropin-releasing factor 2a (CRF2a receptor) (human), Q13324 (Q13324 20-411): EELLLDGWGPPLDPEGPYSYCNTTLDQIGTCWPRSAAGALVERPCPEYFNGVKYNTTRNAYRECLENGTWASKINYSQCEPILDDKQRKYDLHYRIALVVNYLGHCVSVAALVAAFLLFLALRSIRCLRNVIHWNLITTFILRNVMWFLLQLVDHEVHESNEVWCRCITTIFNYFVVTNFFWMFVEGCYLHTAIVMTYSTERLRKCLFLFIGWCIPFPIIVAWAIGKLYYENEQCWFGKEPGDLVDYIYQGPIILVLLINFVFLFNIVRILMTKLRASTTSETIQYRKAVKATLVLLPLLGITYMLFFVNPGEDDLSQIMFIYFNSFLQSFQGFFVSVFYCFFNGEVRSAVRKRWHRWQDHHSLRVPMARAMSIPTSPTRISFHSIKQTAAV

Emax (% I) (CRF1R receptor) [%] | EC50 [nM] (cAMP) [1] | Binder
4 | 1 | Ac-IVLSLD[dV]PIKLK([AEEA-AEEA-γGlu-C18 diacid])KILLEQEKQKKQREQAETN[Api]QILAQV-NH2 (SMILES CC[C@H](C)[C@H](NC(C)=O)C(=O)N[C@H](C(=O)N[C@@H](CC(C)C)C(=O)N[C@@H](CO)C(=O)N[C@@H](CC(C)C)C(=O)N[C@@H](CC(=O)O)C(=O)N[C@@H](C(=O)N1CCC[C@H]1C(=O)N[C@H](C(=O)N[C@@H](CCCCN)C(=O)N[C@@H](CC(C)C)C(=O)N[C@@H](CCCCNC(=O)COCCOCCNC(=O)COCCOCCNC(=O)CC[C@H](NC(=O)CCCCCCCCCCCCCCCCC(=O)O)C(=O)O)C(=O)N[C@@H](CCCCN)C(=O)N[C@H](C(=O)N[C@@H](CC(C)C)C(=O)N[C@@H](CC(C)C)C(=O)N[C@@H](CCC(=O)O)C(=O)N[C@@H](CCC(N)=O)C(=O)N[C@@H](CCC(=O)O)C(=O)N[C@@H](CCCCN)C(=O)N[C@@H](CCC(N)=O)C(=O)N[C@@H](CCCCN)C(=O)N[C@@H](CCCCN)C(=O)N[C@@H](CCC(N)=O)C(=O)N[C@@H](CCCNC(=N)N)C(=O)N[C@@H](CCC(=O)O)C(=O)N[C@@H](CCC(N)=O)C(=O)N[C@@H](C)C(=O)N[C@@H](CCC(=O)O)C(=O)N[C@H](C(=O)N[C@@H](CC(N)=O)C(=O)NC1(C(=O)N[C@@H](CCC(N)=O)C(=O)N[C@H](C(=O)N[C@@H](CC(C)C)C(=O)N[C@@H](C)C(=O)N[C@@H](CCC(N)=O)C(=O)N[C@H](C(N)=O)C(C)C)[C@@H](C)CC)CCNCC1)[C@@H](C)O)[C@@H](C)CC)[C@@H](C)CC)C(C)C)C(C)C) [SEQ ID NO 109]
-2 | 0.55 | Ac-IVLSLD[dV]PIKLK([AEEA-AEEA-γGlu-C18 diacid])KILLEQEKQKKQREQAETN[Aib]QILAQV-NH2 (SMILES CC[C@H](C)[C@H](NC(C)=O)C(=O)N[C@H](C(=O)N[C@@H](CC(C)C)C(=O)N[C@@H](CO)C(=O)N[C@@H](CC(C)C)C(=O)N[C@@H](CC(=O)O)C(=O)N[C@@H](C(=O)N1CCC[C@H]1C(=O)N[C@H](C(=O)N[C@@H](CCCCN)C(=O)N[C@@H](CC(C)C)C(=O)N[C@@H](CCCCNC(=O)COCCOCCNC(=O)COCCOCCNC(=O)CC[C@H](NC(=O)CCCCCCCCCCCCCCCCC(=O)O)C(=O)O)C(=O)N[C@@H](CCCCN)C(=O)N[C@H](C(=O)N[C@@H](CC(C)C)C(=O)N[C@@H](CC(C)C)C(=O)N[C@@H](CCC(=O)O)C(=O)N[C@@H](CCC(N)=O)C(=O)N[C@@H](CCC(=O)O)C(=O)N[C@@H](CCCCN)C(=O)N[C@@H](CCC(N)=O)C(=O)N[C@@H](CCCCN)C(=O)N[C@@H](CCCCN)C(=O)N[C@@H](CCC(N)=O)C(=O)N[C@@H](CCCNC(=N)N)C(=O)N[C@@H](CCC(=O)O)C(=O)N[C@@H](CCC(N)=O)C(=O)N[C@@H](C)C(=O)N[C@@H](CCC(=O)O)C(=O)N[C@H](C(=O)N[C@@H](CC(N)=O)C(=O)NC(C)(C)C(=O)N[C@@H](CCC(N)=O)C(=O)N[C@H](C(=O)N[C@@H](CC(C)C)C(=O)N[C@@H](C)C(=O)N[C@@H](CCC(N)=O)C(=O)N[C@H](C(N)=O)C(C)C)[C@@H](C)CC)[C@@H](C)O)[C@@H](C)CC)[C@@H](C)CC)C(C)C)C(C)C) [SEQ ID NO 98]
